Test results from patent US20260008852A1 (CRYSTAL BIOSCIENCE, published 2026).
Substitutions are numbered along the chain they refer to.

T1: B7-H3 on CHO-K1 cells stably transfected with B7-H3 (GenScript #M00536) (UniProt Q5ZPR3 29-534, limits assumed)
T1 sequence (looked up): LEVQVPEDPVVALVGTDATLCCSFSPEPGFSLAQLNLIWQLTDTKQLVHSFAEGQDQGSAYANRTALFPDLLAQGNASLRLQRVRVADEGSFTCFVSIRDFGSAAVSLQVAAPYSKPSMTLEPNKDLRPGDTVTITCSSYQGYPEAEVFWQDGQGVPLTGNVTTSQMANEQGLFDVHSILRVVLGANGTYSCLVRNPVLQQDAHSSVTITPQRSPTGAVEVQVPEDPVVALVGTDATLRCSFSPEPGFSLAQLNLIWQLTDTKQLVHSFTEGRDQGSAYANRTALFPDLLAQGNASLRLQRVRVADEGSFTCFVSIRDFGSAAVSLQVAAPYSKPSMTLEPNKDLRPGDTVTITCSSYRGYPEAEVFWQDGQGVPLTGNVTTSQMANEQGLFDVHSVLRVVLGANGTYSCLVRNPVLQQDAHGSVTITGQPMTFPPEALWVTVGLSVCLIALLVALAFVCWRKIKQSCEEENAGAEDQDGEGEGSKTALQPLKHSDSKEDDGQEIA

B1: 40579p1.C2 IgG (antibody, V domains shown)
VH: EVQLLESGGDLVQPGGSLRLSCAASGFNFSSYWMSWVRQAPGKGLEWVSGISISYGGNAYYADSVKGRFTVSRDNSKNTLYLQMNSLRAEDTAVYYCGRDRSPYQYRSMDVWGQGTTVTVSS
VL: EIVLTQSPATLSVSPGERATFSCRASQTIGNKLAWYQQKPGQAPRLLIFSASTRATDIPDRFSGSGSGTDFTLTISSLQSEDFAVYYCQQYNNWPPLTFGGGTKVEIK
B2: 40579p1.D1 IgG (antibody, V domains shown)
VH: B1 VH with D10G, N28T, S31D, W33Y, G50S, N58T, A59T, V71I, G98A, Y106C
VL: EIVLTQSPGSLSLSPGERATLSCRASQSVNSDLAWYQQKPGQAPRLLIYAASSRATGIPARFSGSGSGTEFTLTISSLQSEDFAVYYCQQYNNWPPLTFGGGTKVEIK
B3: 40579p1.D8 IgG (antibody, V domains shown)
VH: B1 VH with D10G, N28T, S31D, W33Y, G50S, N58T, A59T, V71I, G98A, Y106C
VL: B2 VL with S10T, V29I, N30R, A50N, A51T, S52V, S53T, I58V, A60D, N93S
B4: 40579p1.F7 IgG (antibody, V domains shown)
VH: B1 VH with D10G, N28T, S31D, W33Y
VL: EIVLTQSPGTLSLSPGERATLTCRASQSVGDFLAWYQQKPGQAPRLLIYGASTRAAGIPARFRGSGSGTDFTLTISSLQSEDFAVYYCQQYKNWPPLTFGGGTKVEIK
B5: 40579p1.G1 IgG (antibody, V domains shown)
VH: B1 VH with D10G
VL: B2 VL with S10T, V29I, N30R, A50G
B6: 40579p1.H7 IgG (antibody, V domains shown)
VH: B1 VH
VL: B2 VL with S10T, V29I, N30R, A50G
B7: 40633p1.1.A7 IgG (antibody, V domains shown)
VH: EVQLLESGGGLVQPGGSLRLSCAASGFTVSYYGMSWVRQAPGKGLEWVSAIKQDGSEKYYADSVKGRFTISRDNSKNTLYLQMNSLRAEDTAVYYCARHWNDYSNAMNVWGQGTTVTVSS
VL: QSVLTQPPSASGTPGQRVTISCSGSTSNIGRESVYWYQQLPGTAPKLLIYTIDQRPSGVPDRFSGSKSGTSASLAISGLQSEDEAVYYCASWDASLNGWVFGGGTKLTVL
B8: 40633p1.1.B3 IgG (antibody, V domains shown)
VH: B7 VH
VL: B7 VL with V86D, A90G, S91T, A94D, G98A
B9: 40633p1.1.C11 IgG (antibody, V domains shown)
VH: EVQLLESGGGLVQPGGSLRLSCAASGFTFSSYWMSWVRQAPGKGLEWVAGINRNGGTTYYADSVKGRFTISRDNSKNTLYLQMNSLRAEDTAVYYCARWNDYDIMDVWGQGTTVTVSS
VL: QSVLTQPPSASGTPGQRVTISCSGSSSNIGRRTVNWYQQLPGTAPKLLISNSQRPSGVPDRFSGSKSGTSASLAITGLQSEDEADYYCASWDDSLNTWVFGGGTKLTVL
B10: 40633p1.1.D11 IgG (antibody, V domains shown)
VH: EVQLLESGGGLVQPGGSLRLSCAASGFTFRSYAMSWVRQAPGKGLEWVAYIGSSGGTTYYADSVKGRFTISRDNSKNTLYLQMNSLRAEDTAVYYCVKESYYYMDVWGQGTTVTVSS
VL: QSVLTQPPSASGTPGQRVTISCSATISNIDINRVSWYQQLPGTAPKLLIFNSQRPSGVPDRFSGSKSGTSASLAISGLQSEDEADYYCATWDDSLNSWVFGGGTKLTVL
B11: 40633p1.1.E3 IgG (antibody, V domains shown)
VH: B7 VH
VL: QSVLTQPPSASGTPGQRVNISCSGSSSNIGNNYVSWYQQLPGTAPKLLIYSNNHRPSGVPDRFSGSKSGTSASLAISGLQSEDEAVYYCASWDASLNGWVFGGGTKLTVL
B12: 40633p1.1.E4 IgG (antibody, V domains shown)
VH: B9 VH with A49S, N52S, R53S, N54S, G56S, T57A
VL: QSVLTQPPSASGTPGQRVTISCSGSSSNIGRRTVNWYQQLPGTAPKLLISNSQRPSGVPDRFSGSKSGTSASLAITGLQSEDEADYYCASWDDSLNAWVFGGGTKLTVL
B13: 40633p1.1.F2 IgG (antibody, V domains shown)
VH: EVQLLESGGGLVQPGGSLRLSCVASGLTFNGFAMTWVRQAPGKGLEWVSGISWNSGSIYYADSVKGRFTISRDNSKNTVYLQMSSLRAEDTAIYYCAKNWNDYYNSMDVWGQGTTVTVSS
VL: QSVLTQPPSASGTPGQRVTISCSGSRSNIGTKYVYWYQQFPGTAPKLLIYTTDRRPSGVPDRFSGSKSGTSASLAISGLQSEDEADYYCSAWDDRLNAWVFGGGTKLTVL
B14: 40633p1.1.G11 IgG (antibody, V domains shown)
VH: B7 VH with A50V, K58E, L86P, A106G
VL: B7 VL with I29V, R31D, E32R, S33Y, T51L, I52D, V86D
B15: 40633p1.1.G5 IgG (antibody, V domains shown)
VH: B7 VH with T28I, S30N, A40P, N77T, A106G
VL: QSVLTQPPSASGTPGQRVTISCSGSWSNIGSYNSHWYQKLPGTAPKLLIYTTDRRPSGVPDRFSGSKSGTSASLAISGLQSEDEADYYCGTWDDSLNVWVFGGGTKLTVL
B16: 40633p1.1.G7 IgG (antibody, V domains shown)
VH: EVQLLESGGGLVQPGGSLRLSCAASGFTFSGSAMNWVRQAPGKGLEWVSAINSGGTTIYYADSVKGRFTVSRDNSKNTLYLQMNSLRAEDTAVYYCVKLDFYYGMDVWGEGTTVTVSS
VL: QSVVTQPPSASGTPGQRVTVSCSGSSSNVGSKYVQWYQQLPGTAPKLLIYATDRRPSGVPDRFSGSKSGTSASLAISGLQSEDEADYYCASWDDSLNAWVFGGGTKLTVL
B17: 40633p1.1.H11 IgG (antibody, V domains shown)
VH: EVQLLESGGGLVQPGGSLRLSCAASGFTFSSYPMTWVRQAPGKGLEWVADINSGGGTTLYADAVKGRFTISRDNSKNIVYLQMNSLRGEDTAVYYCAKHLDYYSYGMDVWGQGTTVTVSS
VL: QSVLTQPPSASGTPGQRVTISCSGVTSKIGSKYVHWYQQLPGTAPKLLIYRNFERPSGVPDRFSGSTSGTSASLAISGLQSEDEADYYCATWEGALNGWVFGGGTKLTVL
B18: 40633p1.2.A10 IgG (antibody, V domains shown)
VH: B7 VH with A50V, K58E, A106G
VL: B7 VL with I29V, R31D, E32R, S33Y, T51L, I52D, V86D
B19: 40633p1.2.C11 IgG (antibody, V domains shown)
VH: B9 VH with T57S, K76E, M83V
VL: QSVLTQPSSASGTPGQRVTISCSGSSSNVGRRAVNWYQQLPGTAPKLLISNSQRPSGVPDRFSGSKSGTSASLAISGLQSEDEADYYCATWDASLNSWVFGGGTKLTVL
B20: 40633p1.2.C3 IgG (antibody, V domains shown)
VH: B7 VH with G111E
VL: B7 VL with T26N, I29V, R31G, E32N, S33Y, Y35S, T51R, I52N, D53S
B21: 40633p1.2.D1 IgG (antibody, V domains shown)
VH: EVQLLESGGGLVQPGGSLRLSCAASGFTFDVYGMSWVRQAPGKGLEWVSAINWNGGSTYYADSVKGRFTISRDNSENTLYLQMNSLRAEDTAVYYCAKEKWKHFIYYGMDVWGQGTTVTVSS
VL: QSVLTQPASASGTPGQTVSISCSGSSSNIDSNTANWYQQLPGTAPKLLIYSNNQRPSGVPDRFSGSKSDTSASLAISGLQSEDEGDYYCSAWDDNLNGWLFGGGTKLTVL

The binders below were run against T1, B7-H3 on CHO-K1 cells stably … (assay: cell-based or functional assay).

Binder	ADCC reporter assay, EC50 Value, CHOK1/B7-H3 cells [µg/mL]	ADCC reporter assay, Max RLU, CHOK1/B7-H3 cells [RLU]
B1	0.0116	843000
B2	0.274	744000
B3	0.075	728000
B4	0.0124	641000
B5	0.0115	806000
B6	0.0126	833000
B7	~0.0125	634000
B8	0.0227	680000
B9	0.0173	719000
B10	0.0119	656000
B11	0.135	625000
B12	0.0194	676000
B13	0.0214	519000
B14	0.0344	725000
B15	0.18	452000
B16	0.0419	656000
B17	0.0412	798000
B18	0.0471	762000
B19	~1.56	94400
B20	0.402	490000
B21	0.0216	676000
